B1: DYRK1B (parent)
chain: ARKYFERLPGGGWTLRRTKELRKD

Variants of: B1
Assay: protein stability index of a GFP-peptide fusion (GPS, HEK-293T) (PSI 1-6); higher = more stable
Conditions: c terminus: a fixed tail appended
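Also: lentivirally expressed fusions sorted by FACS into six bins by GFP to DsRed ratio, PSI derived from sequencing read proportions per bin multiplied by bin number.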

Variant	protein stability index
ARKYFERLPGGGWTLRRTWELRKD [K19W]	2.35
ARKYFERLPGGGWTLRRTHELRKD [K19H]	3.08
ARKYFERLPGGGWTLRRTFELRKD [K19F]	3.01
ARKYFERLPGGGWTLRRTYELRKD [K19Y]	3.25
ARKYFERLPGGGWTLRRTIELRKD [K19I]	2.87
ARKYFERLPGGGWTLRRTMELRKD [K19M]	2.73
ARKYFERLPGGGWTLRRTPELRKD [K19P]	3.97
ARKYFERLPGGGWTLRRTTELRKD [K19T]	3.41
ARKYFERLPGGGWTLRRTSELRKD [K19S]	3.82
ARKYFERLPGGGWTLRRTDELRKD [K19D]	4.88
ARKYFERLPGGGKTLRRTKELRKD [W13K]	3.77
ARKYFERLPGGGDTLRRTKELRKD [W13D]	3.59
ARKYFERLPGGGITLRRTKELRKD [W13I]	3.31
ARKYFERLPGGGNTLRRTKELRKD [W13N]	3.95
ARKYFERLPGGGRTLRRTKELRKD [W13R]	3.3
ARKYFERLPGGGETLRRTKELRKD [W13E]	4.05
ARKYFERLPGGGTTLRRTKELRKD [W13T]	3.36
ARKYFERLPGGGMTLRRTKELRKD [W13M]	3.54
ARKYFERLPGGGFTLRRTKELRKD [W13F]	3.47
ARKYFERLPGGGPTLRRTKELRKD [W13P]	4.18
ARKYFERLPGGGGTLRRTKELRKD [W13G]	5.15
ARKYFERLPGGGLTLRRTKELRKD [W13L]	3.54
ARKYFERLPGGGCTLRRTKELRKD [W13C]	4.61
ARKYFERLPGGGATLRRTKELRKD [W13A]	3.72

Variant	protein stability index
ARKYFERLPGGGHTLRRTKELRKD [W13H]	2.52
ARKYFERLPGGGVTLRRTKELRKD [W13V]	3.07
ARKYFERLPGGGWTLKRTKELRKD [R16K]	3.48
ARKYFERLPGGGWTLGRTKELRKD [R16G]	3.66
ARKYFERLPGGGWTLIRTKELRKD [R16I]	2.99
ARKYFERLPGGGWTLSRTKELRKD [R16S]	3.17
ARKYFERLPGGGWTLMRTKELRKD [R16M]	1.97
ARKYFERLPGGGWTLLRTKELRKD [R16L]	2.79
ARKYFERLPGGGWTLTRTKELRKD [R16T]	3.5
ARKYFERLPGGGWTLHRTKELRKD [R16H]	2.44
ARKYFERLPGGGWTLVRTKELRKD [R16V]	4.2
ARKYFERLPGGGWTLYRTKELRKD [R16Y]	1.45
ARKYFERLPGGGWTLFRTKELRKD [R16F]	1.69
ARKYFERLPGGGWTLPRTKELRKD [R16P]	3.73
ARKYFERLPGGGWWLRRTKELRKD [T14W]	2.72
ARKYFERLPGGGWYLRRTKELRKD [T14Y]	3.01
ARKYFERLPGGGWVLRRTKELRKD [T14V]	2.91
ARKYFERLPGGGWQLRRTKELRKD [T14Q]	2.9
ARKYFERLPGGGWRLRRTKELRKD [T14R]	2.33
ARKYFERLPGGGWFLRRTKELRKD [T14F]	2.36
ARKYFERLPGGGWPLRRTKELRKD [T14P]	2.52
ARKYFERLPGGGWSLRRTKELRKD [T14S]	3.34
ARKYFERLPGGGWKLRRTKELRKD [T14K]	3.34
ARKYFERLPGGGWTLRWTKELRKD [R17W]	2.35

Variant	protein stability index
ARKYFERLPGGGWTLRHTKELRKD [R17H]	3.2
ARKYFERLPGGGWTLRITKELRKD [R17I]	2.03
ARKYFERLPGGGWTLRMTKELRKD [R17M]	2.38
ARKYFERLPGGGWTLRKTKELRKD [R17K]	2.69
ARKYFERLPGGGWTLRLTKELRKD [R17L]	2.43
ARKYFERLPGGGWTLRPTKELRKD [R17P]	2.75
ARKYFERLPGGGWTLRNTKELRKD [R17N]	3.22
ARKYFERLPGGGWTLRVTKELRKD [R17V]	2.07
ARKYFERLPGGGWTLRQTKELRKD [R17Q]	2.83
ARKYFERLPGGGWTLRETKELRKD [R17E]	3.46
ARKYFERLPGGGWTLRYTKELRKD [R17Y]	3.02
ARKYFERLPGGGWTLRFTKELRKD [R17F]	2.58
ARKYFERLPGGGWTLRCTKELRKD [R17C]	2.84
ARKYFERLPGGGWTLRDTKELRKD [R17D]	3.54
ARKYFERLPGGGWTLRGTKELRKD [R17G]	3.6
ARKYFERLPGGGWTLRSTKELRKD [R17S]	3.35
ARKYFERLPGGGWTLRRTKELHKD [R22H]	3.5
ARKYFERLPGGGWTLRRTKELFKD [R22F]	3.59
ARKYFERLPGGGWTLRRTKELPKD [R22P]	3.48
ARKYFERLPGGGWTLRRTKELYKD [R22Y]	1.88
ARKYFERLPGGGWTLRRTKELMKD [R22M]	3.88
ARKYFERLPGGGWTLRRTKELNKD [R22N]	3.97
ARKYFERLPGGGWTLRRTKELKKD [R22K]	3.36
ARKYFERLPGGGWTLRRTKELTKD [R22T]	4.19

Variant	protein stability index
ARKYFERLPGGGWTLRRTKELLKD [R22L]	2.59
ARKYFERLPGGGWTLRRTKELGKD [R22G]	4.3
ARKYFERLPGGGWTLRRTKELEKD [R22E]	4.04
ARKYFERLPGGGWTLRRTKELQKD [R22Q]	3.9
ARKYFERLPGGGWTLRRTKELAKD [R22A]	4.14
ARKYFERLPGGVWTLRRTKELRKD [G12V]	2.15
ARKYFERLPGGMWTLRRTKELRKD [G12M]	2.95
ARKYFERLPGGIWTLRRTKELRKD [G12I]	2.03
ARKYFERLPGGDWTLRRTKELRKD [G12D]	4.15
ARKYFERLPGGFWTLRRTKELRKD [G12F]	2.93
ARKYFERLPGGKWTLRRTKELRKD [G12K]	3.81
ARKYFERLPGGNWTLRRTKELRKD [G12N]	2
ARKYFERLPGGLWTLRRTKELRKD [G12L]	2.57
ARKYFERLPGGYWTLRRTKELRKD [G12Y]	2.42
ARKYFERLPGGQWTLRRTKELRKD [G12Q]	2.95
ARKYFERLPGGTWTLRRTKELRKD [G12T]	2.98
ARKYFERLPGGEWTLRRTKELRKD [G12E]	3.02
ARKYFERLPGGAWTLRRTKELRKD [G12A]	3.06
ARKYFERLPGGPWTLRRTKELRKD [G12P]	2.96
ARKYFERLPGGHWTLRRTKELRKD [G12H]	3.85
ARKYFERLPGGSWTLRRTKELRKD [G12S]	3.11
ARKYFERLPGGGWTLRRTKELRID [K23I]	2.58
ARKYFERLPGGGWTLRRTKELRDD [K23D]	2.72
ARKYFERLPGGGWTLRRTKELRYD [K23Y]	3.07

Variant	protein stability index
ARKYFERLPGGGWTLRRTKELRPD [K23P]	3.1
ARKYFERLPGGGWTLRRTKELRQD [K23Q]	2.83
ARKYFERLPGGGWTLRRTKELRHD [K23H]	3.33
ARKYFERLPGGGWTLRRTKELRND [K23N]	3.34
ARKYFERLPGGGWTLRRTKELRLD [K23L]	2.81
ARKYFERLPGGGWTLRRTKELRVD [K23V]	3.18
ARKYFERLPGGGWTLRRTKELRTD [K23T]	3.14
ARKYFERLPFGGWTLRRTKELRKD [G10F]	2.63
ARKYFERLPMGGWTLRRTKELRKD [G10M]	3.27
ARKYFERLPRGGWTLRRTKELRKD [G10R]	3.75
ARKYFERLPTGGWTLRRTKELRKD [G10T]	3.19
ARKYFERLPVGGWTLRRTKELRKD [G10V]	3.45
ARKYFERLPIGGWTLRRTKELRKD [G10I]	2.38
ARKYFERLPWGGWTLRRTKELRKD [G10W]	2.97
ARKYFERLPSGGWTLRRTKELRKD [G10S]	3.19
ARKYFERLPNGGWTLRRTKELRKD [G10N]	4.09
ARKYFERLPYGGWTLRRTKELRKD [G10Y]	2.35
ARKYFERLPGGGWTLRRTKEWRKD [L21W]	3.76
ARKYFERLPGGGWTLRRTKEKRKD [L21K]	3.73
ARKYFERLPGGGWTLRRTKECRKD [L21C]	4.41
ARKYFERLPGGGWTLRRTKEIRKD [L21I]	3.44
ARKYFERLPGGGWTLRRTKEGRKD [L21G]	3.95
ARKYFERLPGGGWTLRRTKESRKD [L21S]	4.45
ARKYFERLPGGGWTLRRTKEERKD [L21E]	4.62

Variant	protein stability index
ARKYFERLPGGGWTLRRTKEHRKD [L21H]	3.95
ARKYFERLPGGGWTLRRTKEPRKD [L21P]	3.26
ARKYFERLPGGGWTLRRTKEVRKD [L21V]	3.7
ARKYFERLPGGGWTLRRTKEQRKD [L21Q]	3.88
ARKYFERLPGGGWTLRRTKLLRKD [E20L]	3.23
ARKYFERLPGGGWTLRRTKWLRKD [E20W]	2.76
ARKYFERLPGGGWTLRRTKCLRKD [E20C]	3.69
ARKYFERLPGGGWTLRRTKKLRKD [E20K]	2.89
ARKYFERLPGGGWTLRRTKMLRKD [E20M]	3.38
ARKYFERLPGGGWTLRRTKILRKD [E20I]	2.04
ARKYFERLPGGGWTLRRTKQLRKD [E20Q]	3.26
ARKYFERLPGGGWTLRRTKTLRKD [E20T]	3.27
ARKYFERLPGGGWTLRRTKHLRKD [E20H]	1.79
ARKYFERLPGGGWTLRRTKRLRKD [E20R]	3.3
ARKYFERLPGGGWTLRRTKNLRKD [E20N]	3.14
ARKYFERLPGGGWTLRRTKYLRKD [E20Y]	3.6
ARKYFERLPGGGWTLRRTKSLRKD [E20S]	3.34
ARKYFERLPGGGWTLRRTKALRKD [E20A]	4.5
ARKYFERLPGGGWTLRRTKDLRKD [E20D]	3.65
ARKYFERLPGGGWTLRRTKGLRKD [E20G]	4.17
ARKYFERLPGGGWTLRRTKFLRKD [E20F]	3.57
ARKYFERLPGGGWTLRRTKVLRKD [E20V]	3.47
ARKYFERLPGGGWTNRRTKELRKD [L15N]	2.95
ARKYFERLPGGGWTRRRTKELRKD [L15R]	3.34

Variant	protein stability index
ARKYFERLPGGGWTYRRTKELRKD [L15Y]	3.73
ARKYFERLPGGGWTMRRTKELRKD [L15M]	3.25
ARKYFERLPGGGWTVRRTKELRKD [L15V]	4.02
ARKYFERLPGGGWTKRRTKELRKD [L15K]	3.15
ARKYFERLPGGGWTHRRTKELRKD [L15H]	3.85
ARKYFERLPGGGWTIRRTKELRKD [L15I]	3.22
ARKYFERLPGGGWTTRRTKELRKD [L15T]	3.35
ARKYFERLPGGGWTARRTKELRKD [L15A]	3.78
ARKYFERLPGGGWTPRRTKELRKD [L15P]	2.7
ARKYFERLPGGGWTCRRTKELRKD [L15C]	3.29
ARKYFERLPGGGWTQRRTKELRKD [L15Q]	3.65
ARKYFERLPGGGWTDRRTKELRKD [L15D]	2.88
ARKYFERLPGHGWTLRRTKELRKD [G11H]	2.4
ARKYFERLPGSGWTLRRTKELRKD [G11S]	2.49
ARKYFERLPGWGWTLRRTKELRKD [G11W]	2.82
ARKYFERLPGFGWTLRRTKELRKD [G11F]	2.89
ARKYFERLPGPGWTLRRTKELRKD [G11P]	2.74
ARKYFERLPGTGWTLRRTKELRKD [G11T]	3.46
ARKYFERLPGIGWTLRRTKELRKD [G11I]	2.79
ARKYFERLPGVGWTLRRTKELRKD [G11V]	2.48
ARKYFERLPGYGWTLRRTKELRKD [G11Y]	2.73
ARKYFERLPGDGWTLRRTKELRKD [G11D]	2.93
ARKYFERLPGMGWTLRRTKELRKD [G11M]	2.78
ARKYFERLPGCGWTLRRTKELRKD [G11C]	3.26

Variant	protein stability index
ARKYFERLPGKGWTLRRTKELRKD [G11K]	2.06
ARKYFERLPGQGWTLRRTKELRKD [G11Q]	3.34
ARKYFERLPGNGWTLRRTKELRKD [G11N]	3.17
ARKYFERLPGLGWTLRRTKELRKD [G11L]	3.11
ARKYFERLPGGGWTLRRLKELRKD [T18L]	1.73
ARKYFERLPGGGWTLRRDKELRKD [T18D]	4.05
ARKYFERLPGGGWTLRRMKELRKD [T18M]	3.88
ARKYFERLPGGGWTLRRPKELRKD [T18P]	3.57
ARKYFERLPGGGWTLRRVKELRKD [T18V]	3.69
ARKYFERLPGGGWTLRRIKELRKD [T18I]	3.93
ARKYFERLPGGGWTLRRRKELRKD [T18R]	3.72
ARKYFERLPGGGWTLRRYKELRKD [T18Y]	2.26
ARKYFERLPGGGWTLRRTKELRKG [D24G]	3.24
ARKYFERLPGGGWTLRRTKELRKK [D24K]	3.07
ARKYFERLPGGGWTLRRTKELRKH [D24H]	2.54
ARKYFERLPGGGWTLRRTKELRKF [D24F]	2.3
ARKYFERLPGGGWTLRRTKELRKA [D24A]	3.75
ARKYFERLPGGGWTLRRTKELRKE [D24E]	3.63
ARKYFERLPGGGWTLRRTKELRKI [D24I]	3.82
ARKYFERLPGGGWTLRRTKELRKC [D24C]	2.7

— the supplement of paper PMC10567573
